Measured values reported in article PMC8293163 (2021).

Columns and labels:
T117-F MPER scaffold [1] = test: BLI
T117-F MPER scaffold [2] = test: BLI; remark: listed apart in the source

Binder	Kd (T117-F MPER scaffold [1]) [µM]	koff (T117-F MPER scaffold [2]) [s⁻¹]
10E8v4-P100fA Fab (Fab, V domains shown) VH: EVRLVESGGGLVKPGGSLRLSCSASGFDFDNAWMTWVRQPPGKGLEWVGRITGPGEGWSVDYAESVKGRFTISRDNTKNTLYLEMNNVRTEDTGYYFCARTGKYYDFWSGYAPGEEYFQDWGQGTLVIVSS VL: ASELTQDPAVSVALKQTVTITCRGDSLRSHYASWYQKKPGQAPVLLFYGKNNRPSGIPDRFSGSASGNRASLTITGAQAEDEADYYCSSRDKSGSRLSVFGGGTKLTVL	0.103	0.021
10E8v4-H31FLC Fab (Fab, V domains shown) VH: EVRLVESGGGLVKPGGSLRLSCSASGFDFDNAWMTWVRQPPGKGLEWVGRITGPGEGWSVDYAESVKGRFTISRDNTKNTLYLEMNNVRTEDTGYYFCARTGKYYDFWSGYPPGEEYFQDWGQGTLVIVSS VL: SELTQDPAVSVALKQTVTITCRGDSLRSFYASWYQKKPGQAPVLLFYGKNNRPSGIPDRFSGSASGNRASLTITGAQAEDEADYYCSSRDKSGSRLSVFGGGTKLTVL	1.46	0.0364
10E8v4-P100fA-P100gA Fab (Fab, V domains shown) VH: EVRLVESGGGLVKPGGSLRLSCSASGFDFDNAWMTWVRQPPGKGLEWVGRITGPGEGWSVDYAESVKGRFTISRDNTKNTLYLEMNNVRTEDTGYYFCARTGKYYDFWSGYAAGEEYFQDWGQGTLVIVSS VL: ASELTQDPAVSVALKQTVTITCRGDSLRSHYASWYQKKPGQAPVLLFYGKNNRPSGIPDRFSGSASGNRASLTITGAQAEDEADYYCSSRDKSGSRLSVFGGGTKLTVL	2.75	0.0583
10E8v4 Fab (Fab, V domains shown) VH: EVRLVESGGGLVKPGGSLRLSCSASGFDFDNAWMTWVRQPPGKGLEWVGRITGPGEGWSVDYAESVKGRFTISRDNTKNTLYLEMNNVRTEDTGYYFCARTGKYYDFWSGYPPGEEYFQDWGQGTLVIVSS VL: SELTQDPAVSVALKQTVTITCRGDSLRSHYASWYQKKPGQAPVLLFYGKNNRPSGIPDRFSGSASGNRASLTITGAQAEDEADYYCSSRDKSGSRLSVFGGGTKLTVL	0.0094	0.00137
10E8v4-P100gA Fab (Fab, V domains shown) VH: EVRLVESGGGLVKPGGSLRLSCSASGFDFDNAWMTWVRQPPGKGLEWVGRITGPGEGWSVDYAESVKGRFTISRDNTKNTLYLEMNNVRTEDTGYYFCARTGKYYDFWSGYPAGEEYFQDWGQGTLVIVSS VL: ASELTQDPAVSVALKQTVTITCRGDSLRSHYASWYQKKPGQAPVLLFYGKNNRPSGIPDRFSGSASGNRASLTITGAQAEDEADYYCSSRDKSGSRLSVFGGGTKLTVL	0.171	0.0314
